Source: article PMC9581978, “The iron-sulfur cluster is essential for DNA binding by human DNA polymerase ε”

B1: Octet 23-mer template / 11-mer 3'-ddC primer (dsDNA)
DNA 1: AATACATAAGCGCTCCAGGCAAT
DNA 2: GCCTGGAGCGC
modifications: 3'-dideoxycytidine on primer (strand 2)

Tests used:
[1] = target: hPolεCD (E. coli), catalytic domain of DNA polymerase ε p261, CysX [4Fe-4S] cluster (63% iron) (human, UniProt Q07864 28-1194); assay: BLI; 100 mM NaCl; active enzyme concentration; kon 252 mM-1 s-1, koff 41.9e-3 s-1; EMSA: 20 mM Tris-Hepes pH 7.8, 100 mM NaCl, 2% glycerol, 2 mM TCEP, 0.2 mg/mL BSA, 0.5 uM DNA, 5 min room temperature; BLI: 30 mM Tris-Hepes pH 7.8, 100 or 150; conditions: protein: recombinant; tags: N-terminal His-Sumo, His-tag digested during purification; label: 5'-biotin-TEG on template (strand 1); template 5' overhang 9 nt, 3' overhang 3 nt; primer annealed at 2-fold excess
hPolεCD (E. coli), catalytic domain of DNA polymerase ε p261, CysX [4Fe-4S] cluster (63% iron), sequence (Q07864 28-1194): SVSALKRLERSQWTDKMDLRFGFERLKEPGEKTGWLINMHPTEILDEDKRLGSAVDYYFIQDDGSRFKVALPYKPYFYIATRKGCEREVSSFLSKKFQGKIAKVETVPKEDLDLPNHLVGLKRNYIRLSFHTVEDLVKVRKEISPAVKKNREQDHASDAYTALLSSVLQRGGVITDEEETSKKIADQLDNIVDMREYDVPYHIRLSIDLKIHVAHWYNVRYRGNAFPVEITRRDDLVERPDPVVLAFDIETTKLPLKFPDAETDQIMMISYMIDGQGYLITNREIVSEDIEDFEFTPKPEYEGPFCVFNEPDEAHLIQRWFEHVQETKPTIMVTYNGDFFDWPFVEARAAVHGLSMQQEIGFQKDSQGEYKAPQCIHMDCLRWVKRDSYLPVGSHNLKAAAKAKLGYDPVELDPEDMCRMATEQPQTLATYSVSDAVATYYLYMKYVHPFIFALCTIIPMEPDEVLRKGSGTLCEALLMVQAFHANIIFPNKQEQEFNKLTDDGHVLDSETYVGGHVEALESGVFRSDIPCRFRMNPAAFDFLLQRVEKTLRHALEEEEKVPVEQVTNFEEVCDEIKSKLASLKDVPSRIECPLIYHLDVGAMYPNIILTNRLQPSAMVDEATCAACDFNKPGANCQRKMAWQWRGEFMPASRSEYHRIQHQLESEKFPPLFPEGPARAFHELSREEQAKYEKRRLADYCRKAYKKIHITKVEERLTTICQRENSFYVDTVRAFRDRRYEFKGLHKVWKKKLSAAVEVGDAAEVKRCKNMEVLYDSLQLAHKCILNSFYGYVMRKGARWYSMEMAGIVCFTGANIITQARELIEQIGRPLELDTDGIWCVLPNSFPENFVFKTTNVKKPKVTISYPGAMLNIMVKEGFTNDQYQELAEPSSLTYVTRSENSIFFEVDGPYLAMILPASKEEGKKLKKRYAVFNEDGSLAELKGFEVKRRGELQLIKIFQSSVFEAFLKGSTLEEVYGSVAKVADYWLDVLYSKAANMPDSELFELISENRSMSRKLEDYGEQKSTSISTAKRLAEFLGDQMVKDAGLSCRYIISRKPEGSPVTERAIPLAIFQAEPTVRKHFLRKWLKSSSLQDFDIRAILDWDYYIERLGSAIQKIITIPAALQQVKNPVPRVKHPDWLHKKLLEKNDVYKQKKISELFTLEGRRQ

[2] = target: hPolεCD (insect), catalytic domain of DNA polymerase ε p261, iron-poor (7.3% iron) (human, UniProt Q07864 28-1194); assay: BLI; 100 mM NaCl; active enzyme concentration; kon 162 mM-1 s-1, koff 34.2e-3 s-1; EMSA: 20 mM Tris-Hepes pH 7.8, 100 mM NaCl, 2% glycerol, 2 mM TCEP, 0.2 mg/mL BSA, 0.5 uM DNA, 5 min room temperature; BLI: 30 mM Tris-Hepes pH 7.8, 100 or 150; conditions: protein: recombinant; tags: cleavable N-terminal His-Tev, digested during purification; label: 5'-biotin-TEG on template (strand 1); template 5' overhang 9 nt, 3' overhang 3 nt; primer annealed at 2-fold excess
hPolεCD (insect), catalytic domain of DNA polymerase ε p261, iron-poor (7.3% iron), sequence (Q07864 28-1194): as above

[3] = target: hPolεCDM (C654S/C663S), [4Fe-4S]-deficient (human, UniProt Q07864 28-1194, C654S;C663S); assay: EMSA; no mobility effect at 4-fold molar excess over DNA; EMSA: 20 mM Tris-Hepes pH 7.8, 100 mM NaCl, 2% glycerol, 2 mM TCEP, 0.2 mg/mL BSA, 0.5 uM DNA, 5 min room temperature; BLI: 30 mM Tris-Hepes pH 7.8, 100 or 150; conditions: protein: recombinant; tags: N-terminal His-Sumo, His-tag digested during purification; label: 5'-Cy3; single strand
hPolεCDM (C654S/C663S), [4Fe-4S]-deficient, sequence (Q07864 28-1194 C654S/C663S): as the sequence (Q07864 28-1194) above, with C627S, C636S counted along it

Binder | Kd [1] [nM] | Kd [2] [nM] | binding result [3]
B1 | 167 ± 24 | 213 ± 43 | –
GGACTCCGAGCTGCC (ssDNA) [15-mer Cy3 primer alone] | – | – | no binding
